Assays:
[1] = biological target: Zika virus NS5, full length, wild type (Suriname ZIKV human isolate Z1106033), C-terminal 6xHis tag (Zika virus (Suriname human isolate Z1106033)); assay: SAXS; 6 mg/ml NS5 (highest concentration); 50 mM MES pH 6.0, 500 mM NaCl, 10% glycerol, 5 mM DTT; 10 °C
[2] = biological target: Zika virus NS5, full length, wild type (Suriname ZIKV human isolate Z1106033), C-terminal 6xHis tag (Zika virus (Suriname human isolate Z1106033)); assay: AUC; sedimentation velocity, 20 °C, 43,000 rpm, 0.5 mg/ml protein; 50 mM HEPES pH 7.0, 500 mM NaCl, 5% glycerol, 0.4 mM DTT
[3] = biological target: Zika virus NS5, full length, wild type (Suriname ZIKV human isolate Z1106033), C-terminal 6xHis tag (Zika virus (Suriname human isolate Z1106033)); assay: SEC-MALS; Superdex 200 10/300 GL; 50 mM HEPES pH 7.0, 500 mM NaCl, 10% glycerol, 5 mM DTT; monomer-dimer
[4] = biological target: Zika virus NS5, full length, wild type (Suriname ZIKV human isolate Z1106033), C-terminal 6xHis tag (Zika virus (Suriname human isolate Z1106033)); assay: SEC-MALS; Superdex 200 10/300 GL; 50 mM MES pH 6.0, 500 mM NaCl, 10% glycerol, 5 mM DTT; monomer-dimer
[5] = biological target: Zika virus NS5 Y25A/K28S/K29A variant, full length, C-terminal 6xHis tag (Zika virus (Suriname human isolate Z1106033))

Substance | stoichiometry N [1] | percent abundance of the dimer species [2] [%] | percent of the sample as oligomer [2] [%] | stoichiometry N [2] | percent abundance of the dimer peak [3] [%] | stoichiometry N [3] | percent of the sample mass in the dimer peak [4] [%] | stoichiometry N [4] | RNA primer extension (polymerase elongation) activity at 900, 180, 18, 9 nM enzyme, variant against wild type NS5 [5] [fold]
Zika virus NS5, full length, wild type (Suriname ZIKV human isolate Z1106033), C-terminal 6xHis tag (from UniProt A0A024B7W1 2521-3423) (natural protein) | 2 | 12 | 5.1 | 2 | 10.4 | 2 | 4 | 2 | 
Zika virus NS5 Y25A/K28S/K29A variant, full length, C-terminal 6xHis tag (natural protein) |  |  |  |  |  |  |  |  | 3
